Results from the Human Domainome abundance scans (Beltran et al. 2025).
± gives the uncertainty stated by the source.

Assay: abundance fitness (aPCA) (normalised: wild type 0, dead -1); higher = more abundant; growth selection in yeast, the domain comes from the species named
Conditions: Homo sapiens

Substance	abundance fitness
Lipoamide acyltransferase component of branched-chain alpha-keto acid dehydrogenase complex, mitochondrial T171Q, P11182	-0.391 ± 0.09
Lipoamide acyltransferase component of branched-chain alpha-keto acid dehydrogenase complex, mitochondrial T171R, P11182	-0.578 ± 0.058
Lipoamide acyltransferase component of branched-chain alpha-keto acid dehydrogenase complex, mitochondrial T171S, P11182	-0.267 ± 0.075
Lipoamide acyltransferase component of branched-chain alpha-keto acid dehydrogenase complex, mitochondrial T171V, P11182	0.019 ± 0.057
Lipoamide acyltransferase component of branched-chain alpha-keto acid dehydrogenase complex, mitochondrial T171W, P11182	-0.49 ± 0.075
Lipoamide acyltransferase component of branched-chain alpha-keto acid dehydrogenase complex, mitochondrial T171Y, P11182	-0.022 ± 0.062
Lipoamide acyltransferase component of branched-chain alpha-keto acid dehydrogenase complex, mitochondrial T174A, P11182	-0.347 ± 0.066
Lipoamide acyltransferase component of branched-chain alpha-keto acid dehydrogenase complex, mitochondrial T174C, P11182	-0.141 ± 0.081
Lipoamide acyltransferase component of branched-chain alpha-keto acid dehydrogenase complex, mitochondrial T174D, P11182	0.003 ± 0.058
Lipoamide acyltransferase component of branched-chain alpha-keto acid dehydrogenase complex, mitochondrial T174E, P11182	-0.389 ± 0.053
Lipoamide acyltransferase component of branched-chain alpha-keto acid dehydrogenase complex, mitochondrial T174F, P11182	-0.403 ± 0.075
Lipoamide acyltransferase component of branched-chain alpha-keto acid dehydrogenase complex, mitochondrial T174G, P11182	-0.39 ± 0.038
Lipoamide acyltransferase component of branched-chain alpha-keto acid dehydrogenase complex, mitochondrial T174H, P11182	-0.206 ± 0.069
Lipoamide acyltransferase component of branched-chain alpha-keto acid dehydrogenase complex, mitochondrial T174I, P11182	-0.601 ± 0.11
Lipoamide acyltransferase component of branched-chain alpha-keto acid dehydrogenase complex, mitochondrial T174K, P11182	-0.379 ± 0.063
Lipoamide acyltransferase component of branched-chain alpha-keto acid dehydrogenase complex, mitochondrial T174L, P11182	-0.724 ± 0.059
Lipoamide acyltransferase component of branched-chain alpha-keto acid dehydrogenase complex, mitochondrial T174M, P11182	-0.643 ± 0.084
Lipoamide acyltransferase component of branched-chain alpha-keto acid dehydrogenase complex, mitochondrial T174N, P11182	-0.064 ± 0.13

Substance	abundance fitness
Lipoamide acyltransferase component of branched-chain alpha-keto acid dehydrogenase complex, mitochondrial T174V, P11182	-0.773 ± 0.052
Lipoamide acyltransferase component of branched-chain alpha-keto acid dehydrogenase complex, mitochondrial T174W, P11182	-0.787 ± 0.045
Lipoamide acyltransferase component of branched-chain alpha-keto acid dehydrogenase complex, mitochondrial T213C, P11182	-0.179 ± 0.074
Lipoamide acyltransferase component of branched-chain alpha-keto acid dehydrogenase complex, mitochondrial T213D, P11182	0.049 ± 0.058
Lipoamide acyltransferase component of branched-chain alpha-keto acid dehydrogenase complex, mitochondrial T213F, P11182	-0.222 ± 0.069
Lipoamide acyltransferase component of branched-chain alpha-keto acid dehydrogenase complex, mitochondrial T213G, P11182	0.093 ± 0.036
Lipoamide acyltransferase component of branched-chain alpha-keto acid dehydrogenase complex, mitochondrial T213H, P11182	-0.062 ± 0.058
Lipoamide acyltransferase component of branched-chain alpha-keto acid dehydrogenase complex, mitochondrial T213K, P11182	0.145 ± 0.071
Lipoamide acyltransferase component of branched-chain alpha-keto acid dehydrogenase complex, mitochondrial T213L, P11182	-0.185 ± 0.056
Lipoamide acyltransferase component of branched-chain alpha-keto acid dehydrogenase complex, mitochondrial T213M, P11182	-0.122 ± 0.097
Lipoamide acyltransferase component of branched-chain alpha-keto acid dehydrogenase complex, mitochondrial T213P, P11182	-0.075 ± 0.065
Lipoamide acyltransferase component of branched-chain alpha-keto acid dehydrogenase complex, mitochondrial T213Q, P11182	0.005 ± 0.047
Lipoamide acyltransferase component of branched-chain alpha-keto acid dehydrogenase complex, mitochondrial T213R, P11182	0.066 ± 0.045
Lipoamide acyltransferase component of branched-chain alpha-keto acid dehydrogenase complex, mitochondrial T213S, P11182	-0.008 ± 0.046
Lipoamide acyltransferase component of branched-chain alpha-keto acid dehydrogenase complex, mitochondrial T213V, P11182	-0.028 ± 0.048
Lipoamide acyltransferase component of branched-chain alpha-keto acid dehydrogenase complex, mitochondrial T213W, P11182	-0.247 ± 0.053
Lipoamide acyltransferase component of branched-chain alpha-keto acid dehydrogenase complex, mitochondrial T213Y, P11182	-0.386 ± 0.15
